# Results as given in PMC3433420, “Comprehensive Binary Interaction Mapping of SH2 Domains via Fluorescence Polarization Reveals Novel Functional Diversification of ErbB Receptors” (PLoS ONE, 2012).
# Non-standard residues stand in square brackets, D forms with d. No end group written: not given here. pY = N[C@@H](Cc1ccc(OP(=O)(O)O)cc1)C(=O)O; rhodamine = not defined here
# B1: ErbB4pY1208 phosphopeptide, rhodamine-labelled (peptide)
# peptide: rhodamine-NEPL[pY]LNTFANTD
# modifications: reading uncertain
# notes: human ErbB4 around Tyr1208; the labelled form stood in the FP saturation assay behind Ki (exp FP); source: synthetic peptide
# B2: ErbB3pY1222 phosphopeptide, unlabeled competitor (peptide)
# peptide: EELG[pY]EYMDVGSD
# notes: human ErbB3 around Tyr1222; source: synthetic peptide
# Columns and labels:
# GRB2 SH2 domain = target: T1, GRB2 SH2 domain (human, UniProt P62993 60-152); assay: fluorescence polarisation; saturation binding in solution: rhodamine peptide fixed at 10 nM, protein titrated 0.002-10 uM, 20 min at room temperature; assay buffer 20 mM HEPES, 100 mM KCl, 0.1% Tween-20, 5 mM DTT, pH 7.8; apparent KD; conditions: both partners purified
# T1 construct: GRB2, human; source: bacterial expression, purified
# SRC SH2 domain = target: T2, SRC SH2 domain (human, UniProt P12931-1 151-248); assay: fluorescence polarisation; competition: rhodamine peptide 10 nM, protein at four times its KD, unlabeled competitor peptide in 11 serial 1:3 dilutions; Ki from IC50, one-site model; conditions: both partners purified
# T2 construct: SRC, human; also called c-Src; source: bacterial expression, purified
# T1 sequence (P62993 60-152): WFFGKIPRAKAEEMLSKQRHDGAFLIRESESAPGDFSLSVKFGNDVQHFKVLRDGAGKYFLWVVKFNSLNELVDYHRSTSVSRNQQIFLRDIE
Binder,Kd (GRB2 SH2 domain),Ki (SRC SH2 domain)
B1,1460 nM,–
B2,–,2360 nM
